According to patent publication US20170182047A9, “Post-Translational Regulation of Catalytic Activities of Cytochrome P450 46A1 and Uses Thereof” (The Board of Regents of the University of Texas System, priority 2007, published 2017):

Assays:
[1] = substrate: CC(C)CCC[C@@H](C)[C@H]1CC[C@H]2[C@@H]3CC=C4C[C@@H](O)CC[C@]4(C)[C@H]3CC[C@]12C; assay: purified protein, by the assay type; details: other: compound as substrate, 37.0 °C
Protocol: (§1) The ability of recombinant CYP46A1 to metabolize CH-3S was tested using the reconstituted with cytochrome P450 reductase in vitro system. After termination of the enzyme reaction, the substrate and products were extracted, solvolyzed, converted into trimethylsilyl ethers and analyzed by gas chromatography-mass spectrometry as described (23). […] The reaction conditions were optimized for the formation of only one product.
(§2) The reconstituted system (1 ml) contained 0.1-0.25 μM P450, 0.5 μM NADPH cytochrome P450 oxidoreductase, varying concentrations of cold substrate (1-75 μM), 250,000 cpm of radiolabeled substrate, and 2U of catalase. […] The organic phase was isolated, evaporated, dissolved in acetonitrile, and subjected to HPLC. […] Substrate metabolism was <18% and linear with reaction time and enzyme concentration.

[2] = substrate: CC(C)CCC[C@@H](C)[C@H]1CC[C@H]2[C@@H]3CC=C4C[C@@H](OS(=O)(=O)O)CC[C@]4(C)[C@H]3CC[C@]12C; assay: purified protein, by the assay type; details: other: compound as substrate, 37.0 °C
Protocol: as §1, §2

Protein	Km ([1]; Full-length CYP46A1) [µM]	kcat ([1]; Full-length CYP46A1)	kcat/Km ([1]; Full-length CYP46A1) [M⁻¹ s⁻¹]	Km ([2]; Full-length CYP46A1) [µM]	Km ([1]; Δ(2-50) CYP46A1) [µM]	kcat ([1]; Δ(2-50) CYP46A1) [min⁻¹]	kcat/Km ([1]; Δ(2-50) CYP46A1) [M⁻¹ s⁻¹]	Km ([2]; Δ(2-50) CYP46A1) [µM]
full-length CYP46A1 (Homo sapiens) (protein) MSPGLLLLGSAVLLAFGLCCTFVHRARSRYEHIPGPPRPSFLLGHLPCFWKKDEVGGRVLQDVFLDWAKKYGPVVRVNVFHKTSVIVTSPESVKKFLMSTKYNKDSKMYRALQTVFGERLFGQGLVSECNYERWHKQRRVIDLAFSRSSLVSLMETFNEKAEQLVEILEAKADGQTPVSMQDMLTYTAMDILAKAAFGMETSMLLGAQKPLSQAVKLMLEGITASRNTLAKFLPGKRKQLREVRESIRFLRQVGRDWVQRRREALKRGEEVPADILTQILKAEEGAQDDEGLLDNFVTFFIAGHETSANHLAFTVMELSRQPEIVARLQAEVDEVIGSKRYLDFEDLGRLQYLSQVLKESLRLYPPAWGTFRLLEEETLIDGVRVPGNTPLLFSTYVMGRMDTYFEDPLTFNPDRFGPGAPKPRFTYFPFSLGHRSCIGQQFAQMEVKVVMAKLLQRLEFRLVPGQRFGLQEQATLKPLDPVLCTLRPRGWQPAPPPPPC	5.4	0.11^2 min^−1	330	4.9	–	–	–	–
Δ(2-50)CYP46A1dH (Homo sapiens) (protein) MKKDEVGGRVLQDVFLDWAKKYGPVVRVNVFHKTSVIVTSPESVKKFLMSTKYNKDSKMYRALQTVFGERLFGQGLVSECNYERWHKQRRVIDLAFSRSSLVSLMETFNEKAEQLVEILEAKADGQTPVSMQDMLTYTAMDILAKAAFGMETSMLLGAQKPLSQAVKLMLEGITASRNTLAKFLPGKRKQLREVRESIRFLRQVGRDWVQRRREALKRGEEVPADILTQILKAEEGAQDDEGLLDNFVTFFIAGHETSANHLAFTVMELSRQPEIVARLQAEVDEVIGSKRYLDFEDLGRLQYLSQVLKESLRLYPPAWGTFRLLEEETLIDGVRVPGNTPLLFSTYVMGRMDTYFEDPLTFNPDRFGPGAPKPRFTYFPFSLGHRSCIGQQFAQMEVKVVMAKLLQRLEFRLVPGQRFGLQEQATLKPLDPVLCTLRPRGWQPAPPPPPC	–	–	–	–	7.7	0.43	1000	3.3
